Columns and labels:
[1] = test system: rats with dorsal hemisection of the spinal cord; assay: Rat spinal cord transection assay (Example 12); format: in vivo; details: intrathecal pump, up to 28 days, FIG. 12
Method: Alzet® osmotic pumps were loaded with test solution (sNogoR310-Fc in PBS) made up freshly on the day of use. The loading concentration was calculated to be 5 and 50 μM. Pumps were primed for >40 hours at 37° C. prior to implantation into animals. Female Long Evans rats were given pre-operative analgesia and tranquilizer and anesthetized using isoflurane (3% in O2).
Rats were placed in a stereotaxic frame and the motor cortex exposed for infusion of the tract tracing agent BDA (10,000 MW) bilaterally. Rats then underwent dorsal hemisection of the spinal cord at TS-T6 followed by implantation of the intrathecal catheter and pump system to deliver test compound (n=1 per group).
Rats were allowed to recover and survive up to 28 days after surgery. Behavioral scoring using the BBB system was recorded up to 28 days after induction of injury, just prior to termination of the in-life phase of the study. […]
The Basso-Beattie-Bresnahan (BBB) locomotor rating scale (Basso et al., Neurotrauma 13:343-359 (1996)), the inclined plane test and the inclined grid walking test (Li and Strittmatter, J Neurosci. 23:4219-27 (2003)) were monitored in rats and mice after injury. For the inclined plane test, we measured the maximal angle to which a 50 cm×60 cm board could be angled for 5 sec without the mouse sliding off. […]

[2] = test system: rats with mid-thoracic dorsal hemisection injury; assay: Intrathecal sNogoR310-Fc in rats with dorsal hemisection: behavioral tests; format: in vivo, rat
From the text: The Basso-Beattie-Bresnahan (BBB) locomotor rating scale (Basso et al., Neurotrauma 13:343-359 (1996)), the inclined plane test and the inclined grid walking test (Li and Strittmatter, J Neurosci. 23:4219-27 (2003)) were monitored in rats and mice after injury. For the inclined plane test, we measured the maximal angle to which a 50 cm×60 cm board could be angled for 5 sec without the mouse sliding off. For inclined grid walking, the mice were trained to climb a wire grid (35 cm long with 2.54 cm squares) at a slope of 45 degrees. The number of instances in which the hindpaw dropped below the grid plane was scored for each excursion from bottom to top. For the rat behavioral testing, BBB locomotor scale, grid walking and footprint analysis were performed. For grid walking, the rats were trained to walk on a wire grid (70 cm long with 2.54 an squares), and the number of instances in which the hindpaw dropped below the grid plane was counted. For footprint analysis, the walking patterns of rat hindpaws were recorded with ink during a continuous locomotion across a 90 cm runway, and stride length on each side and stride width were calculated (Metz et al., Brain Res. 883:165-177 (2000)). All of these behavioral tests were performed by at least two individuals. Throughout the surgery, behavioral testing and histologic analysis, researchers were blind to the identity of the compound in the minipump.
We deeply anaesthetized female Sprague-Dawley rats (190-250 g) and conducted laminectomies at spinal levels of T6-7, exposing the spinal cord. We cut the dorsal half of the spinal cord with a 30-gauge needle and a pair of microscissors to sever the dorsal parts of CSGT tracts, and assured the depth of the lesion (1.8 mm) by passing the sharp part of a number 11 blade across the dorsal half of the cord (Grandpre et al., Nature 417:547-551 (2002)). An osmotic minipump (Alzet® 2ML4, 2 ml volume, 2.5 μl/h, 28 day delivery), which was filled with 1.2 mg rat IgG in PBS or 1.2 mg sNogoR310-Fc fusion protein in PBS, was sutured to muscles under the skin on the back of the animals. […]

[3] = test system: Nogo-66, MAG and myelin action; assay: Blockade of Nogo-66, MAG and myelin action in vitro
[4] = test system: rats with mid-thoracic dorsal hemisection injury; assay: Intrathecal sNogoR310-Fc in rats with mid-thoracic dorsal hemisection: axon tracing and histology; format: in vivo, rat
From the text: We isolated spinal cord 4 mm rostral to and 4 mm caudal to the lesion site (8 mm long in total) from transgenic mice and embedded it in a glutaraldehyde-polymerized albumin matrix, and cut parasagittally on a vibratome (30 μm thick). We collected transverse sections (50 μm) from the spinal cord 5-7 mm rostral to and 5-7 mm caudal to the injury site. For sNogoR310-Fc injection experiments in rats, the spinal cord extending from 10 mm rostral to 10 mm caudal from the lesion site was cut parasaggitally (50 μm) on a vibrating microtome. Transverse sections were collected from the spinal cord 11-16 mm rostral to and 11-16 mm caudal to the injury site. We incubated the sections with avidin-biotin-peroxidase complex and visualized the BDA tracer by nickel-enhanced diaminobenzidine HRP reaction (Grandpre, Nature 417:547-551 (2002)). We processed some sections for serotonin immunohistochemistry (anti-5-HT antibody) by indirect immunofluorescence. To visualize the lesion area, we double-stained some sections with antibodies directed against GFAP (Sigma®, St. Louis, Mo.). We mounted, dehydrated and covered the sections with mounting medium.
We fused the ligand binding domain (27-310) of rat Nogo receptor-1 to the rat IgG1 Fc domain to promote stability and purification. We purified protein from stably transfected CHO cells. This protein blocks Nogo-66, MAG and myelin action in vitro, as shown previously for mouse sNogoR310-Myc His (Fournier et al., J Neurosci. 22:8876-8883 (2002); Liu et al., Science 297:1190-1193 (2002)). We delived sNogoR310-Fc protein intrathecally to rats with a mid-thoracic dorsal hemisection injury through an osmotic minipump. During a four-week survival period after injury, 1.2 mg sNogoR310-Fc protein was locally administered in each rat. In rats receiving the vehicle treatment (1.2 mg rat IgG), sections rostral to hemisection display the tightly bundled prominent dorsal CST and very few ectopic BDA-labeled CST fibers above the lesion site. […] Numerous ectopic fibers sprouting from the BDA-labeled CST are observed from transverse and parasagittal sections. In some cases, projections cross from the dCST area near the midline to the circumference of the cord, becoming intermingled with the dorsolateral CST. The sprouting axons extend though gray matter to a greater extent than white matter.
We deeply anaesthetized female Sprague-Dawley rats (190-250 g) and conducted laminectomies at spinal levels of T6-7, exposing the spinal cord. We cut the dorsal half of the spinal cord with a 30-gauge needle and a pair of microscissors to sever the dorsal parts of CSGT tracts, and assured the depth of the lesion (1.8 mm) by passing the sharp part of a number 11 blade across the dorsal half of the cord (Grandpre et al., Nature 417:547-551 (2002)). An osmotic minipump (Alzet® 2ML4, 2 ml volume, 2.5 μl/h, 28 day delivery), which was filled with 1.2 mg rat IgG in PBS or 1.2 mg sNogoR310-Fc fusion protein in PBS, was sutured to muscles under the skin on the back of the animals. A catheter connected to the outlet of the minipump was inserted into the intrathecal space of the spinal cord at the T7-8 level through a small hole in the dura.
Fourteen days after hemisection, a burr hole was made on each side of the skull overlying the sensorimotor cortex of the lower limbs to trace CST fibers. The anterograde neuronal tracer BDA (10% in PBS, 3.5 μl per cortex) was applied at seven injection sites at a depth of 1.5 mm from dura on each side (Grandpre et al., Nature 417:547-551 (2002)). For rubrospinal tract tracing in rats, the tracer BDA (1 μl; MW 10,000; 10% in PBS) was injected into red nucleus on the left side (5.8 mm posterior to bregma, 0.7 mm lateral, 7.0 mm ventral to the skull surface). Two weeks after BDA injection, these animals were perfused with PBS, followed by 4% paraformaldehyde, and tissue was collected for histology.

[5] = test system: DRG neurons, myelin-mediated inhibition of neurite outgrowth; assay: Neurite outgrowth assay, P3-4 rat DRG neurons, myelin mixed with test protein (Example 10); format: cell-based; details: mixed with CNS myelin, FIGS. 9-11
Method: Lab-Tek® culture slides (4 wells) were coated with 0.1 mg/ml poly-D-lysine (Sigma®). CNS myelin alone or mixed with sNogoR310, sNogoR310-Fc fusion protein, mAb 5B10 or control PBS were separately spotted as 3 μl drops. Fluorescent microspheres (Polysciences) were added to the myelin/PBS to allow later identification of the drops (Grandpre et al., Nature 403:439-444 (2000)). Lab-Tek® slides were then rinsed and coated with 10 μg/ml laminin (Gibco™).
Dorsal root ganglions (DRG's) from P3-4 Sprague Dawley rat pups were dissociated with 1 mg/ml collagenase type 1 (Worthington), triturated with fire-polished Pasteur pipettes pre-plated to enrich in neuronal cells and finally plated at 23,000 cells/well on the pre-coated Labtek culture slides. The culture medium was F12 containing 5% heat inactivated donor horse serum, 5% heat inactivated fetal bovine serum and 50 ng/ml mNGF and incubated at 37° C. and 5% CO2 for 6 hours.
Slides were fixed for 20 minutes with 4% paraformaldehyde containing 20% sucrose and stained for the neuronal marker anti beta-III-tubulin (Covance TUJ1) diluted 1:500. As secondary antibody anti-mouse Alexa Fluor® 594 (Molecular Probes) was diluted 1:300 and slides were coverslipped with Gel/Mount™ (Biømeda™). 5× digital images were acquired with OpenLab™ software and analyzed by using the MetaMorph® software for quantification of neurite outgrowth.

B1: sNogoR310-Fc: fusion protein comprising amino acids 26-310 of rat Nogo receptor-1 and a rat Fc fragment (protein)
chain: PCPGACVCYNEPKVTTSRPQQGLQAVPAGIPASSQRIFLHGNRISYVPAASFQSCRNLTILWLHSNALAGIDAAAFTGLTLLEQLDLSDNAQLRVVDPTTFRGLGHLHTLHLDRCGLQELGPGLFRGLAALQYLYLQDNNLQALPDNTFRDLGNLTHLFLHGNRIPSVPEHAFRGLHSLDRLLLHQNHVARVHPHAFRDLGRLMTLYLFANNLSMLPAEVLVPLRSLQYLRLNDNPWVCDCRARPLWAWLQKFRGSSSGVPSNLPQRLAGRDLKRLATSDLEGCA
modifications: left off: a dimerising Fc or GST
notes: fusion protein comprising amino acids 26-310 of rat Nogo receptor-1 and a rat Fc fragment
- functional recovery (BBB score) [1]: promoted functional recovery
- grid walking errors ([2]; 2-4 weeks post-injury, on average): 4-7 /session
- locomotor BBB score ([2]; 2-4 weeks post-trauma): continues to improve
- animals with consistent forelimb-hindlimb coordination and parallel paw position ([2]; 4 weeks after injury, 9 treated animals): 9
- blocks Nogo-66, MAG and myelin action in vitro [3]: blocks
- BDA-labeled axons from sagittal sections ([4]; 1-2 mm caudal to lesion, each rat): approximately 20
- number of sprouts ([4]; 1-10 mm caudal): ~50 sprouts/rat
- traced axons from sagittal sections ([4]; 7-8 mm distal to lesion, each rat): ~15
- serotonin fibers relative to control group ([4]; 11-15 mm below the lesion): twice as numerous
- density of serotonergic fibers vs vehicle ([4]; 11-15 mm rostral to lesion): similar
- total collateral length of each sprout relative to NEP 1-40-treated animals ([4]; distal spinal cord): twice as great
- ectopic sprouting fibers adjacent to the dCST ([4]; rostral to lesion, 1.2 mg intrathecal over four weeks): greater increase
- average number of BDA-labeled CST fibers relative to vehicle-treated rats ([4]; transverse sections 11-15 mm caudal to hemisection): approximately 20 fold
- BDA-labeled RST fibers ([4]; transverse sections 11-15 mm distal to SCI): many BDA-labeled RST fibers
- protection of DRG neurons from myelin-mediated inhibition of neurite outgrowth [5]: protected

Source: patent publication US9228015B2, “Nogo receptor antagonists and methods of increasing neurite outgrowth” (Biogen Idec MA Inc., priority 2006, dated 2016)
